Test results: the PETadex activity labels

Substrate: BHET
Details: 120 h

Row | Protein | plate clearing
1 | unnamed (protein) MFGKFPFARAGLAVGALLLSAAAVAQTNPYQRGPDPTVASLEATRGSFATSSFTVSRPSGYGAGTVYYPTNAGGKVGAIAVVPGFTARQSSINWWGARLASHGFVVITIDTNSTLDQPSSRSSQQMAALRQVVTLAGTTSSPIYNKVDTARLGVMGWSMGGGGSLISAKNNPTLRAAAPQAPWAQESFSTVTVPTLIISCESDTIAPNNTHSFPFYNQMTRNKKANLVINGGSHSCANSGNADAGLIGKYGVAWMKRFMDDDTRFSKFLCGAEHTADLSKRAIEAYKENCPY | not clears the plate
2 | unnamed (protein) MRACCAFNSTIPGDTMSLQLTKHFGLAALACAALMSLGAAAHAQSYQKGPNPTASALERAGPFATRTTDVSRYSVTNFGGGTIYYPTAAGQYGAIAVSPGYTASKSTVTFWGERLSSHGFVVIVIDTLTTLDQPASRARQLKAALDKVVSLSRSSSSPIYNKVDPNRLAVMGHSMGGGGTLQAAKDNPGLKAAIPMAPWNTVTNWSAVTVPTLVMACQADAIAPVANHAVPFYNSMSANKKSYIEMAGDDHLCVMNGGGHDATLGKMGIAWMKRFVDNDTRYSPFLCGLPYQATVNTSEVSVHRNNCPY | clears the plate (z > 3 vs empty vector)
3 | unnamed (protein) MKFQRFLQATVLAGATLLSFGAAAIEIGPAPTKASLEASRGPFSVGQFTVSRPSGYGAGTVYYPTNAGAKVGAIAIVPGFVSYQSSIAWWGPRLASHGFVVITIDTNTTVDQPDSRSRQQLAALDQVIALSKTSSSPIYNKVDENRTGVMGWSMGGGGSLISAKNRPSIKAAAPQAPWNSSTNFSSVTVPTLIFACQSDIVAPVAQHASPFYNSITRAPKQYLEKTLGDHFCFNSANATVGLKGVAWMKRFIDGDTRYTSFACSNPNALGFSDFRTARCS | not clears the plate
4 | unnamed (protein) MERKNSRRSWAIGLGLLVLAATSAHAQTNPYQKGPDPTSASLNATSGSFSVATSSVSSAVSGFGGGTIYYPTTTGTYAVLAISPGFTATQSSIAWLGRRIATHGFVVITIDTNSTLDQPPSRATQLMAALNYVTNSSSATVRAKVDASRRGVAGHSMGGGGTLYAARDNPSLKAAVPLTAWSTLKSFSSVQVPTLVVGAESDSIAPVSSHSIPFYNSLSGSLDKAYAELNGASHLAPNSTNTPIGRYSVAWVKRFMDNDTRYTPFLCGTPHT | not clears the plate
5 | unnamed (protein) MPTPNTRPTPFGRLLQVTLAVSALALSLGAQAQQTGADPTTAILEAPAGPLAVSNVKVATPSGFGSGTVYYPTTGKGPYGLVSVTPGFVEGEWAINWLGPLLASHGFVVVTIGTTTILDAPTSRAKQMMAALKQVTALSATKTSPFAGKVDPSRLAVMGHSMGGGGSLDAARDNPNLKAAIPLAPWETTKDYSKITVPTLIVSCDSDVIAPVADHANKFYDSLTPTLTKALVEMKGAGHFCTNGTAIPATRTLVGKYSISWLKRFVDGDTRYSPFLCGAPHQADLAGSLISTYKGNCPY | not clears the plate
6 | unnamed (protein) MRKISFKASLFSTLTLLASSITYAGGGGGNGGNNNGGLPAPDTCEVNCGYNQGSNPSLNSLQSTRGNFSVATSNVPRSVPGFGGGTIYYPRNTSGELATIAIAPGFTAPQDAISWWGPVLASNGFVVITIDTNSRLDQPISRGRQLDSALSYLISQGNSSNSPISGMVDENRLASMGHSMGGGGALRSASRNRLSAAIPLAPFNVGGNSFNDIEVPTMIMACENDGTAPVNIHASPFYNRIPSSTDKALIELDNGNHSCANGGSGRNNAVLATYGVSWMKRFLDKDQRFIPFLCGPNHEANRGISDYRD | not clears the plate
7 | unnamed (protein) MIEIRSSYKSKKTNCKRSVMPSMITKKAALPFVISSALLFSASAFAITPPSDPDPDPTPCEGDCDFTRGPDPTESMLEARSGPFNVDTVNVSSRVSGFGGGTIHYPTNTSGQMGAIVVAPGFVSPESSIGWWGPQLASHGFIVMTIATNSLYDQPDSRRDQLEAGLDYLISQSNSSGSDISGMVDSSRLGAMGWSMGGGGALQLAADGRLSAAIPLAPYNSSRNDFDDITTPTLIFACENDAVAAVRSHASPFYNDIPGSTDKAFVEINGGAHSCANGGNTNNSLLSKYGVSWMKLHLDQDQRYSQFLCGPNHESDRSISEYRGTCPY | not clears the plate
8 | unnamed (protein) MNSRRASRLARAALAAGALLLSAAALATSNPYQRGPDPTAASLEASRGPFAVSSFTVSRPSGFGAGTVYYPTNAGGTVGAIAVVPGFTARQSSINWWGPRLASHGFVVITIDTNSTSDQPASRATQLMAALRQVVTLSGTSSSPIYNKVDTSRLGVMGWSMGGGGTLIAARNNPTLKAAVPLAPWNSSTNFSSVTVPTLIIACENDTVAPVSSHASPFYNSMTRTEKAYLEINGGSHSCANSGNSNQALLGKYGVAWMKRFMDNDTRYSSFLCGAPHSADLSSKSAISEYRENCPY | clears the plate (z > 3 vs empty vector)
9 | unnamed (protein) MQHSPSTSRTRQRVTGILASLAVAVGVGIAAGPAAQGADNPHERGPDPTESSIEASRGSYSISERNVSSLVSGFGGGTIYYPTTTRDGDFGAVVISPGYTGTERTISWLGPRLASQGFVVLTMATNSIYDQPDSRARQLQAALDYLTDSSPVADRIDADRLALMGHSMGGGGTLRAVDDNPDIKAAIPMTPWHVKKNWSSVSTPTLIFGAENDSVARHETHAEPFYESFDRDLQKAYLELDGASHFAPNSSNTTIAKYSISWLKRFVDDDTRYTQFLCPGPSTGWFSDVEKYESSCPF | not clears the plate
10 | unnamed (protein) MKTSRTRTATTTLTRLARLALAAAALLLSAAAQAQSSNPYQRGPDPTAASLEASAGPFAVSTTTVSSASGFGGGTIYYPTNTEGPFAAIAVVPGFTATQSSISWWGPRLASHGFVVITIDTNSTFDQPASRATQLMAALNYVVSLSNTSSSPIYGKVDSNRLGVMGHSMGGGGTLIAARDNPTLKAAIPLAPWNSSTNFSSVTVPTLIIACENDTVAPVSSHASPFYNSIPSSTDKAYLEINGGDHFCANSGNSNKAILGKYGVAWMKRFLDNDTRYSPFLCGAPHQADLSGSAISEYRDNCPY | clears the plate (z > 3 vs empty vector)
11 | unnamed (protein) MRSAKTSVLAAVALGAAALLALGACGGSNNPYIRGDDPTEESLSRPGPYAVKSLTEGDRNGPGYGGGTIYYPTDAEPPFAAVAIVPGFTSPQSSIASWGPFLASHGIVAMTIDTNSTFDQPDTRAAALLDALESIKGENTRAGSPLKGKLDTNRLGVMGWSMGGGGTLIAAKDNPELKAAISLCPWNPGSSYSNTKVPTLMIASQADPLAGVSGHSQPFYDSIPDSTPKMLFEVAGGDHFVANNPANGNGQVGRYGLSWLKRFLEGDERYRPFLLEKPPGASDYRTNVY | not clears the plate
12 | unnamed (protein) MEISKKKCLIGLGLMAMAMGVQAQTNPLAKGPDPTNASIQANGPFAVTTVTISNANANGYGGATVYVPTAAGTYALVAFSPGFTARQDTIAVIGRRLATHGFVVATIDTNSTLDLPDSRGTQLLAALRSVAALNAGNTAAAGKIDTTRLVVTGHSMGGGGTLFASRTNTAIKAGVPIAPFSSGVKNFATPVPQFILGGEVDNVAPVDEHSIPFFNGLPNATPKVYAELNGEDHFFVSESTPNQPASKFQIAWIKRFADNDARYTQFVNSAGVAVERNNGRLSDGRLESF | not clears the plate
13 | unnamed (protein) MDPSLKRALGLVVALTAAMLFSASASAQNPPPDDDPEPCQTDCDDGGNGGYTRGPDPTDSYLEASSGPYNVATSNVSSFVSGFGGGTIHYPTNTSGSMGGIVVIPGYVSYESSIEWWGPRLASHGFVVMTIDTNSIYDQPGSRKDQIDAALDYLVGQSNASSSAISGMVDGDRLAAVGWSMGGGGTLQLAAEPGRLKAAMPLAPWNSSFNDFDQIQTPTLIFACESDAVAPVSSHASPFYNDIPDATDKAFFEMNNGSHTCANGGNAYDELLGKYGVSWMKLHLDEDQRYEQFLCGPNHESEYQVS | not clears the plate
14 | unnamed (protein) MAKDRAGDVAAAKLNKSHLRGSPMEITQRGARILGTKCAASLGLLLLAATAAHAQSNPYAKGPDPTSSSLNASAGPFSVATSSVSSLAAVGFGSGTVYYPTTAGSYAAIAISPGFTATESSIAWLGRRVATHGFVVITINTNSTLDQPPSRATQLMAALRYLTNSSSSTVRSRIDTTRLGLAGHSMGGGGTLIAARDNPSLKAAVPLTAWSVTKSFSTMRVPTLVVGAENDSIASVSSHSIPFYNSLPSSLSKAYAELNGASHFAPNTTNTPIGRYTVAWVKRFMDNDTRYSPFLCGSPHDSYATGLVFSDYRDNCPY | not clears the plate
15 | unnamed (protein) MIMKNIDRRLRHCAVGLGLLLLAAVAQAQTNPLAKGPDPTSDLLNATAGPFAVATTSVSSSVSGFGGGTVYYPTASGSYATVAVCPGFTATQSSIAWIGRRMASHGFVVMTINTNSTLDQPPSRATQLMAALRYLTNSSNSTVRARVDANRLGVAGHSMGGGGTLMAARDNPTLKAAVPMTPWSQTKSFSTVRVPTLIVGAENDSVAPVASHSIPFYTSLSGSLDKAYAELNNASHFAPNSTNTPIGRYSVAWVKRFMDNDTRY | not clears the plate
